Consider one molecule from publication PMC3321182 (The EMBO Journal, 2012).

The assay addresses T1, N-terminal autoproteolysis product of the crystallized HormR-GAIN fragment of rat CL1 (CIRL/Latrophilin 1) (rat, UniProt O88917 460-837).
T1 sequence (looked up): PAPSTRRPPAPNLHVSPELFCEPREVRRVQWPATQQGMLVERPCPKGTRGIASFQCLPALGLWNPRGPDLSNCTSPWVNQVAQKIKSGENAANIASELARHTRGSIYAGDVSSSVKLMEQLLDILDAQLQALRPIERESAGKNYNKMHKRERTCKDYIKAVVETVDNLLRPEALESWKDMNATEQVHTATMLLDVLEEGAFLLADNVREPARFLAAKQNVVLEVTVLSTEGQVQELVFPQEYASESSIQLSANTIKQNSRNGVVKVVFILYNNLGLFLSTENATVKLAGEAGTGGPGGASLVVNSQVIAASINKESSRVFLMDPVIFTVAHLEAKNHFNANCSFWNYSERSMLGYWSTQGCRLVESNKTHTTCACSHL
Kind of assay: crystal structure.

For the molecule TNFAVLMAHREI (peptide, UniProt O88917 838-849, looked up), the binding result is on record as “binds”.
